The text below walks through data of the supplement of paper PMC11780869.

In the data set the test system is Bacillus subtilis. The data set can be described thus: cleaved RNA product abundance (RNA/gDNA barcode ratio) relative to median wild-type variant (ratio to wild type); higher = more accumulation of the downstream cleavage product. Particulars: experiment (reporter, strain, medium): exp 8a: truncated aprE reporter, strain BJT201 with 2% xylose (RNase J1 expressed); cleavage site: glnRA (positions -5 to +31 mutated). The essentials:
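Sequencing of barcodes from gel-selected, reverse-transcribed cleaved RNA and from genomic DNA, with UMI collapsing, yielded a per-construct RNA:gDNA ratio. Scaled to the median construct with the unmutated site, this ratio is the cleaved product abundance. The barcoded reporters (truncated aprE or tetM mRNAs with mutagenized RNase Y cleavage-site windows) were integrated into the B. subtilis chromosome, and cultures grew in LB at 37°C from OD600 0.0003 to 0.3.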
In the case of “CGACATGTCCCGCTTCTTTCATTAATCCGTTAGCAACTGTTTTTCTATAAACATTTACCTTTTAAGAGGAGGAAT”, the “cleaved RNA product abundance” value worked out at 0.459.

For the sequence “CGACATGTCCCGCTTCTTTCATTAATCCGTTAGCAACTGTTTTTCTATATACAATTACCTTTTAAGAGGAGGAAT”, the “cleaved RNA product abundance” value was 0.846.

For “CGACATGTCCCGCTTCTTTCATTAATCCGTTAGCAACTGTTTTTCTATATACACTTACCTTTTAAGAGGAGGAAT”, the “cleaved RNA product abundance” value worked out at 0.721.

As to “CGACATGTCCCGCTTCTTTCATTAATCCGTTAGCAACTGTTTTTCTATATACATATACCTTTTAAGAGGAGGAAT”, the “cleaved RNA product abundance” value came to 0.656.

“CGACATGTCCCGCTTCTTTCATTAATCCGTTAGCAACTGTTTTTCTATATACATTTAACTTTTAAGAGGAGGAAT”: the “cleaved RNA product abundance” value turned out to be 0.675.

For the sequence “CGACATGTCCCGCTTCTTTCATTAATCCGTTAGCAACTGTTTTTCTATATACATTTACATTTTAAGAGGAGGAAT”, the “cleaved RNA product abundance” value amounted to 0.576.

Turning to “CGACATGTCCCGCTTCTTTCATTAATCCGTTAGCAACTGTTTTTCTATATACATTTACCTTTTAAGAGGAGGAAT”, the “cleaved RNA product abundance” value was found to be 0.576.

Take “CGACATGTCCCGCTTCTTTCATTAATCCGTTAGCAACTGTTTTTCTATATACATTTACGTTTTAAGAGGAGGAAT”: the “cleaved RNA product abundance” value was found to be 0.305.

In the case of “CGACATGTCCCGCTTCTTTCATTAATCCGTTAGCAACTGTTTTTCTATATACATTTTACCTTTTAAGAGGAGGAA”, the “cleaved RNA product abundance” value worked out at 0.435.

Take “CGACATGTCCCGCTTCTTTCATTAATCCGTTAGCAACTGTTTTTCTATATAGATTTACCTTTTAAGAGGAGGAAT”: the “cleaved RNA product abundance” value was 0.925.

With “CGACATGTCCCGCTTCTTTCATTAATCCGTTAGCAACTGTTTTTCTATATATATTTACCTTTTAAGAGGAGGAAT”, the “cleaved RNA product abundance” value was determined as 0.668.

“CGACATGTCCCGCTTCTTTCATTAATCCGTTAGCAACTGTTTTTCTATATTCATTTACCTTTTAAGAGGAGGAAT”: the “cleaved RNA product abundance” value was 0.189.

Regarding “CGACATGTCCCGCTTCTTTCATTAATCCGTTAGCAACTGTTTTTCTCTATACATTTACCTTTTAAGAGGAGGAAT”, the “cleaved RNA product abundance” value is 0.337.

For “CGACATGTCCCGCTTCTTTCATTAATCCGTTAGCAACTGTTTTTCTGTATACATTTACCTTTTAAGAGGAGGAAT”, the “cleaved RNA product abundance” value stood at 0.357.

For the sequence “CGACATGTCCCGCTTCTTTCATTAATCCGTTAGCAACTGTTTTTGCTATATACATTTACCTTTTAAGAGGAGGAA”, the “cleaved RNA product abundance” value was found to be 0.946.

For “CGACATGTCCCGCTTCTTTCATTAATCCGTTAGCAACTGTTTTTGTATATACATTTACCTTTTAAGAGGAGGAAT”, the “cleaved RNA product abundance” value is 0.494.

Take “CGACATGTCCCGCTTCTTTCATTAATCCGTTAGCAACTGTTTTTTTATATACATTTACCTTTTAAGAGGAGGAAT”: the “cleaved RNA product abundance” value came out at 0.718.

On to “CGACATGTCCCGCTTCTTTCATTAATCCGTTAGCAACTTATTTGCTATATACATTTACCTTTTAAGAGGAGGAAT”, for which the “cleaved RNA product abundance” value was 1.85.

For “CGACATGTCCCGCTTCTTTCATTAATCCGTTAGCAACTTGTTTTGCTATATACATTTACCTTTTAAGAGGAGGAA”, the “cleaved RNA product abundance” value is 1.01.

With “CGACATGTCCCGCTTCTTTCATTAATCCGTTAGCAACTTTATTGCTATATACATTTACCTTTTAAGAGGAGGAAT”, the “cleaved RNA product abundance” value was determined as 0.922.

Regarding “CGACATGTCCCGCTTCTTTCATTAATCCGTTAGCAACTTTTGTGCTATATACATTTACCTTTTAAGAGGAGGAAT”, the “cleaved RNA product abundance” value came out at 1.05.

On to “CGACATGTCCCGCTTCTTTCATTAATCCGTTAGCAACTTTTTAGCTATATACATTTACCTTTTAAGAGGAGGAAT”, for which the “cleaved RNA product abundance” value was 0.565.

“CGACATGTCCCGCTTCTTTCATTAATCCGTTAGCAACTTTTTCGCTATATACATTTACCTTTTAAGAGGAGGAAT”: the “cleaved RNA product abundance” value was determined as 0.662.

As for “CGACATGTCCCGCTTCTTTCATTAATCCGTTAGCAACTTTTTGGCTATATACATTTACCTTTTAAGAGGAGGAAT”, the “cleaved RNA product abundance” value is 0.563.

As to “CGACATGTCCCGCTTCTTTCATTAATCCGTTAGCAACTTTTTTACTATATACATTTACCTTTTAAGAGGAGGAAT”, the “cleaved RNA product abundance” value is 0.744.

With “CGACATGTCCCGCTTCTTTCATTAATCCGTTAGCAACTTTTTTCCTATATACATTTACCTTTTAAGAGGAGGAAT”, the “cleaved RNA product abundance” value came out at 0.697.

As to “CGACATGTCCCGCTTCTTTCATTAATCCGTTAGCAACTTTTTTGCAATATACATTTACCTTTTAAGAGGAGGAAT”, the “cleaved RNA product abundance” value was determined as 0.494.

For the sequence “CGACATGTCCCGCTTCTTTCATTAATCCGTTAGCAACTTTTTTGCTATAAACATTTACCTTTTAAGAGGAGGAAT”, the “cleaved RNA product abundance” value came to 1.58.

As to “CGACATGTCCCGCTTCTTTCATTAATCCGTTAGCAACTTTTTTGCTATATACAATTACCTTTTAAGAGGAGGAAT”, the “cleaved RNA product abundance” value was 1.63.

Consider “CGACATGTCCCGCTTCTTTCATTAATCCGTTAGCAACTTTTTTGCTATATACATATACCTTTTAAGAGGAGGAAT”, for which the “cleaved RNA product abundance” value is 2.12.

As for “CGACATGTCCCGCTTCTTTCATTAATCCGTTAGCAACTTTTTTGCTATATACATTTAACTTTTAAGAGGAGGAAT”, the “cleaved RNA product abundance” value came out at 1.81.

Take “CGACATGTCCCGCTTCTTTCATTAATCCGTTAGCAACTTTTTTGCTATATACATTTACATTTTAAGAGGAGGAAT”: the “cleaved RNA product abundance” value was 1.72.

On to “CGACATGTCCCGCTTCTTTCATTAATCCGTTAGCAACTTTTTTGCTATATACATTTACCATTTAAGAGGAGGAAT”, for which the “cleaved RNA product abundance” value came to 1.97.

On to “CGACATGTCCCGCTTCTTTCATTAATCCGTTAGCAACTTTTTTGCTATATACATTTACCGTTTAAGAGGAGGAAT”, for which the “cleaved RNA product abundance” value amounted to 1.51.

In the case of “CGACATGTCCCGCTTCTTTCATTAATCCGTTAGCAACTTTTTTGCTATATACATTTACCTTTTAAGAGGAGGAAT”, the “cleaved RNA product abundance” value was 1.24.

Turning to “CGACATGTCCCGCTTCTTTCATTAATCCGTTAGCAACTTTTTTGCTATATACATTTACTTTTTAAGAGGAGGAAT”, the “cleaved RNA product abundance” value is 1.37.

“CGACATGTCCCGCTTCTTTCATTAATCCGTTAGCAACTTTTTTGCTATATACATTTTCCTTTTAAGAGGAGGAAT”: the “cleaved RNA product abundance” value was determined as 0.343.

On to “CGACATGTCCCGCTTCTTTCATTAATCCGTTAGCAACTTTTTTGCTATATATATTTACCTTTTAAGAGGAGGAAT”, for which the “cleaved RNA product abundance” value stood at 0.911.

For “CGACATGTCCCGCTTCTTTCATTAATCCGTTAGCAACTTTTTTGCTATATTCATTTACCTTTTAAGAGGAGGAAT”, the “cleaved RNA product abundance” value was found to be 0.521.

In the case of “CGACATGTCCCGCTTCTTTCATTAATCCGTTAGCAACTTTTTTGTTATATACATTTACCTTTTAAGAGGAGGAAT”, the “cleaved RNA product abundance” value was 0.748.

As to “CGACATGTCCCGCTTCTTTCATTAATCCGTTAGCAACTTTTTTTCTATATACATTTACCTTTTAAGAGGAGGAAT”, the “cleaved RNA product abundance” value turned out to be 0.658.

On to “CGACATGTCCCGCTTCTTTCATTAATCCGTTAGCAAGCGTTTTGCTATATACATTTACCTTTTAAGAGGAGGAAT”, for which the “cleaved RNA product abundance” value was 0.684.

“CGACATGTCCCGCTTCTTTCATTAATCCGTTAGCAAGTGATTTGCTATATACATTTACCTTTTAAGAGGAGGAAT”: the “cleaved RNA product abundance” value was 1.25.

Regarding “CGACATGTCCCGCTTCTTTCATTAATCCGTTAGCAAGTGTTATGCTATATACATTTACCTTTTAAGAGGAGGAAT”, the “cleaved RNA product abundance” value worked out at 0.19.

Take “CGACATGTCCCGCTTCTTTCATTAATCCGTTAGCAAGTGTTTTACTATATACATTTACCTTTTAAGAGGAGGAAT”: the “cleaved RNA product abundance” value is 0.824.

Regarding “CGACATGTCCCGCTTCTTTCATTAATCCGTTAGCAAGTGTTTTGCTAAATACATTTACCTTTTAAGAGGAGGAAT”, the “cleaved RNA product abundance” value stood at 0.596.

For “CGACATGTCCCGCTTCTTTCATTAATCCGTTAGCAAGTGTTTTGCTATAAACATTTACCTTTTAAGAGGAGGAAT”, the “cleaved RNA product abundance” value was 0.659.

As to “CGACATGTCCCGCTTCTTTCATTAATCCGTTAGCAAGTGTTTTGCTATATAAATTTACCTTTTAAGAGGAGGAAT”, the “cleaved RNA product abundance” value came to 0.803.

For “CGACATGTCCCGCTTCTTTCATTAATCCGTTAGCAAGTGTTTTGCTATATACATCTACCTTTTAAGAGGAGGAAT”, the “cleaved RNA product abundance” value stood at 0.494.

In the case of “CGACATGTCCCGCTTCTTTCATTAATCCGTTAGCAAGTGTTTTGCTATATACATTTACCTTTTAAGAGGAGGAAT”, the “cleaved RNA product abundance” value was found to be 0.995.

In the case of “CGACATGTCCCGCTTCTTTCATTAATCCGTTAGCAAGTGTTTTGCTATATACATTTACTTTTTAAGAGGAGGAAT”, the “cleaved RNA product abundance” value turned out to be 1.39.

Take “CGACATGTCCCGCTTCTTTCATTAATCCGTTAGCAAGTGTTTTGCTATATACATTTAGCTTTTAAGAGGAGGAAT”: the “cleaved RNA product abundance” value worked out at 1.43.

Regarding “CGACATGTCCCGCTTCTTTCATTAATCCGTTAGCAAGTGTTTTGCTATATCCATTTACCTTTTAAGAGGAGGAAT”, the “cleaved RNA product abundance” value stood at 0.273.

Consider “CGACATGTCCCGCTTCTTTCATTAATCCGTTAGCAAGTGTTTTGCTATATTCATTTACCTTTTAAGAGGAGGAAT”, for which the “cleaved RNA product abundance” value worked out at 0.488.

“CGACATGTCCCGCTTCTTTCATTAATCCGTTAGCAAGTGTTTTGCTATTTACATTTACCTTTTAAGAGGAGGAAT”: the “cleaved RNA product abundance” value was found to be 0.163.

For the sequence “CGACATGTCCCGCTTCTTTCATTAATCCGTTAGCAAGTGTTTTGCTTTATACATTTACCTTTTAAGAGGAGGAAT”, the “cleaved RNA product abundance” value turned out to be 0.474.

For “CGACATGTCCCGCTTCTTTCATTAATCCGTTAGCAAGTGTTTTGTTATATACATTTACCTTTTAAGAGGAGGAAT”, the “cleaved RNA product abundance” value was 0.21.

Take “CGACATGTCCCGCTTCTTTCATTAATCCGTTAGCAAGTGTTTTTCTATATACATTTACCTTTTAAGAGGAGGAAT”: the “cleaved RNA product abundance” value was found to be 0.603.

With “CGACATGTCCCGCTTCTTTCATTAATCCGTTAGCAAGTTTTTTGCTATATACATTTACCTTTTAAGAGGAGGAAT”, the “cleaved RNA product abundance” value is 0.974.

“CGACATGTCCCGCTTCTTTCATTAATCCGTTAGCAATCGTTTTGCTATATACATTTACCTTTTAAGAGGAGGAAT”: the “cleaved RNA product abundance” value amounted to 1.11.

Take “CGACATGTCCCGCTTCTTTCATTAATCCGTTAGCAATGGTTTTGCTATATACATTTACCTTTTAAGAGGAGGAAT”: the “cleaved RNA product abundance” value was 1.08.
